# B1: WT RID: mouse NCoR RID (residues 1942 to 2208 in the X50 splice variant) (protein, UniProt Q60974 1942-2208, looked up, fragment)
# chain: TITAANFIDVIITRQIASDKDARERGSQSSDSSSSLSSHRYETASDAIEVISPASSPAPPQEKPQAYQPDMVKANQAENESTRQYEGPLHHYRSQQESPSPQQQPPLPPSSQSEGMGQVPRTHRLITLADHICQIITQDFARNQVPSQASTSTFQTSPSALSSTPVRTKTSSRYSPESQSQTVLHPRPGPRVSPENLVDKSRGSRPGKSPERSHIPSEPYEPISPPQGPAVHEKQDSMLLLSQRGVDPAEQRSDSRSPGSISYLPSF
# modifications: X50 splice variant
# How the values were obtained:
# [1] = system: REV-ERBβ LBD / NCoR RID; test: Chemical cross-linking mass spectrometry (XL-MS); type: binding; conditions: apo LBD and heme-bound LBD ± RID; DSSO
# Procedure: (§1) Apo or heme-bound REV-ERBβ LBD and NCoR RID protein samples were cross-linked in Hepes gel filtration buffer [25 mM Hepes (pH 7.5) at room temperature, 50 mM NaCl, and 0.5 mM TCEP]. Non–cross-linked negative controls were generated using the same procedure without the addition of DSSO (Thermo Fisher Scientific). Samples included 4 μM apo LBD with or without 2 μM RID and 4 μM heme-bound LBD with or without 2 μM RID; complexes were preincubated 1 hour on ice. Reactions were initiated by spiking DSSO in DMSO at a final concentration of 600 μM in 50-μl solutions. The final molar ratio of cross-linker:protein was 100:1. The reactions were incubated at 25°C for 45 min before being quenched by the addition of tris (pH 8.0) to a final concentration of 50 mM. Each cross-link reaction was done in triplicate, and the reaction replicates were pooled after quenching. Samples (10 μl) were loaded for SDS-PAGE analysis with Coomassie staining to confirm the presence of cross-linked protein. The remaining cross-linked and non–cross-linked samples were then acetone-precipitated at −20°C overnight, and the protein was pelleted by centrifugation at 16,000 relative centrifugal force (rcf) for 5 min at 4°C. After decanting, the pellets were dried for 15 min at room temperature before being resuspended in 12.5 μl of resuspension buffer [50 mM ammonium bicarbonate and 8 M urea (pH 8.0)]. […]
# [2] = system: REV-ERBβ LBD; test: DSSO chemical cross-linking, SDS-PAGE; type: binding, human; conditions: 4 μM LBD ± heme with 2 μM RID, 600 μM DSSO, 25°C, 45 min
# Procedure: To further support this stoichiometry, we performed chemical cross-linking analysis of apo or heme-bound LBD ± RID using DSSO (disuccinimidyl sulfoxide), a cross-linker that cross-links lysine residues as well as serine, threonine, and tyrosine residues (fig. S9, A and B).
# as §1, with “protein.” for “protein. The remaining cross-linked and non–cross-linked samples were then acetone-precipitated at −20°C overnight, and the protein was pelleted by centrifugation at 16,000 relative centrifugal force (rcf) for 5 min at 4°C. After decanting, the pellets were dried for 15 min at room temperature before being resuspended in 12.5 μl of resuspension buffer [50 mM ammonium bicarbonate and 8 M urea (pH 8.0)].”
molecule,measurement,setting,value
B1,effect of RID on LBD-LBD cross-links,[1],enhanced LBD-LBD cross-links
same,LBD:RID complexes by cross-linking SDS-PAGE,[2],two bands with molecular weights consistent with 1:1 and 2:1 LBD:RID complexes

# Source: article PMC7840129, “Structural basis for heme-dependent NCoR binding to the transcriptional repressor REV-ERBβ” (Science Advances, 2021)
